Test results as given in publication PMC5427286, “Structural model of dodecameric heat-shock protein Hsp21: Flexible N-terminal arms interact with client proteins while C-terminal tails maintain the dodecamer and chaperone activity” (The Journal of Biological Chemistry, 2017).

Legend:
[1] = target: the molecule itself; experiment: cross-linking; BS3 at protein/cross-linker ratios of 1:10 and 1:60, protein 25-250 uM, read by denaturing SDS-PAGE
[2] = target: the molecule itself; experiment: SAXS; batch SAXS at 2.5, 5 and 10 mg/ml; ensemble optimization method (EOM) with pools of dimers, hexamers and dodecamers

B1: Hsp21, the 21-kDa chloroplast-localized small heat-shock protein of Arabidopsis thaliana (natural protein)
chain: not shown
notes: N-terminal peptide printed as 1MQDQR5, IXVXI motif 179IDVQI183, rigid bodies of residues 83-184. numbers count on: the mature protein; Dodecamer of two trimer-of-dimer discs; The deposited model lacks part of the NTR; also called Hsp21 WT; Hsp21WT; source: E. coli ER2566, purified (ammonium sulfate precipitation, SEC); copies: 12
[1]
  stoichiometry N: 12
[2]
  stoichiometry N: 6
